T1: DVL3, Q92997
T1 sequence (Q92997 244-331, limits assumed, looked up): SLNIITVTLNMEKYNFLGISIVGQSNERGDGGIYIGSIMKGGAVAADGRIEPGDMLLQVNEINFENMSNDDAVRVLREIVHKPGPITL

T2: MPP2, Q14168
T2 sequence (Q14168 180-250, limits assumed, looked up): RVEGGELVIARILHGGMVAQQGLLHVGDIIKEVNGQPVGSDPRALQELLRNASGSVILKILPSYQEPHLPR

T3: ARHGEF11, O15085
T3 sequence (O15085 42-136, limits assumed, looked up): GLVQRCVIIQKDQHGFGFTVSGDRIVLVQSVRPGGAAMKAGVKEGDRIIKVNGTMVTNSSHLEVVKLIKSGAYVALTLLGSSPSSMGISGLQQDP

T4: NHERF3_1, Q5T2W1
T4 sequence (Q5T2W1 4-100, limits assumed, looked up): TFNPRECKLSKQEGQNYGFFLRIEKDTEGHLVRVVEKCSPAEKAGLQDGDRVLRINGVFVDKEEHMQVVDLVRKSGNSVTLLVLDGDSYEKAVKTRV

T5: GRIP1_4, Q9Y3R0
T5 sequence (Q9Y3R0 467-571, limits assumed, looked up): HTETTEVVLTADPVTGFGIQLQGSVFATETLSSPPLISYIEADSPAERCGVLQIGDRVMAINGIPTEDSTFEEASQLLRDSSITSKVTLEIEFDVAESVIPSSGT

T6: LNX2_3, Q8N448
T6 sequence (Q8N448 463-564, limits assumed, looked up): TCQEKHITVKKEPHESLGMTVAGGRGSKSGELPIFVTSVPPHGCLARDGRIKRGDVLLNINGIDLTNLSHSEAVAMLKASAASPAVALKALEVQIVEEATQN

T7: RADIL, Q96JH8
T7 sequence (Q96JH8 971-1071, limits assumed, looked up): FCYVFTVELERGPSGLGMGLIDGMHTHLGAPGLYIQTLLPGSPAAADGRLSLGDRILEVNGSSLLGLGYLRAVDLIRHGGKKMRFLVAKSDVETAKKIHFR

T8: LIN7B, Q9HAP6
T8 sequence (Q9HAP6 88-185, limits assumed, looked up): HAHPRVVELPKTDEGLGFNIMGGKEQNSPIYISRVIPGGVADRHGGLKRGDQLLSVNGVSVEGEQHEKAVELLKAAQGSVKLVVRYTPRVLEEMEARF

T9: GRIP1_5, Q9Y3R0
T9 sequence (Q9Y3R0 568-668, limits assumed, looked up): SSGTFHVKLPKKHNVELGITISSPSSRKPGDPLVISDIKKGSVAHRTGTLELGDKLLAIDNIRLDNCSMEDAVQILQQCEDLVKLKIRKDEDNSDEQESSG

T10: LNX2_2, Q8N448
T10 sequence (Q8N448 334-432, limits assumed, looked up): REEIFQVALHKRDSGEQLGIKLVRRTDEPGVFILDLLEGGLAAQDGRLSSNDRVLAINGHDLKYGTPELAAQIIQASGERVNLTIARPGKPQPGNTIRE

T11: DLG3_3, Q92796
T11 sequence (Q92796 374-475, limits assumed, looked up): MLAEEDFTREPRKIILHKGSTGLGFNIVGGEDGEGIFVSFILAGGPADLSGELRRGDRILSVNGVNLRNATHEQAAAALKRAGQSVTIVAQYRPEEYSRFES

T12: TIAM2, Q8IVF5
T12 sequence (Q8IVF5 885-986, limits assumed, looked up): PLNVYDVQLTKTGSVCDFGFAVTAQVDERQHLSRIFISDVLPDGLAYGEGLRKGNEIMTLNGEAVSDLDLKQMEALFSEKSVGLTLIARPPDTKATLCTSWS


Experiments:
Experiment in all cases: holdup assay
Set-up in all cases: key: below the threshold = too weak to quantify, mostly under pKd 3.1 to 4
Settings in all cases: plain residues with an end cap or a label only (N-terminal biotin on a linker: ado-ado)
NOS1, P29475 = biological target: NOS1, P29475
Chain of NOS1, P29475 (P29475 9-101): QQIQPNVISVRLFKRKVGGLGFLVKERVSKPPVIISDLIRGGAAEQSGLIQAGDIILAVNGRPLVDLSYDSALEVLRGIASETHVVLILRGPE

DVL3, Q92997 = biological target: T1, DVL3, Q92997
SNX27, Q96L92 = biological target: SNX27, Q96L92
GRIP2_5, Q9C0E4 = biological target: GRIP2_5, Q9C0E4
Chain of GRIP2_5, Q9C0E4 (Q9C0E4 544-642): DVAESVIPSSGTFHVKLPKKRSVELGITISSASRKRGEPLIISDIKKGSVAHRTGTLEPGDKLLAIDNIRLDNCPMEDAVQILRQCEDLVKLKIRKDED

MAGI2_2, Q86UL8 = biological target: MAGI2_2, Q86UL8
Chain of MAGI2_2, Q86UL8 (Q86UL8 410-522): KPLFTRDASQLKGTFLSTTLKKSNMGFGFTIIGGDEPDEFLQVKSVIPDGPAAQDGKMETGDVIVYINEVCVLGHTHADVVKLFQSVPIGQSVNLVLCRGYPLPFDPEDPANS

MPP2, Q14168 = biological target: T2, MPP2, Q14168
ARHGEF11, O15085 = biological target: T3, ARHGEF11, O15085
GIPC2, Q8TF65 = biological target: GIPC2, Q8TF65
Chain of GIPC2, Q8TF65 (Q8TF65 112-203): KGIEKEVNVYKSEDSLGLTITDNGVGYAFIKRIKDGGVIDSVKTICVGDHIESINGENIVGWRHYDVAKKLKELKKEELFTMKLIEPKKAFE

MAST2, Q6P0Q8 = biological target: MAST2, Q6P0Q8
Chain of MAST2, Q6P0Q8 (Q6P0Q8 1099-1202): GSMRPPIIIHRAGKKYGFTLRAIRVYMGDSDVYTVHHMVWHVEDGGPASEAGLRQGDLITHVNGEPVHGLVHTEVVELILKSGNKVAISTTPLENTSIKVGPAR

LAP2, Q96RT1 = biological target: LAP2, Q96RT1
Chain of LAP2, Q96RT1 (Q96RT1 other isoform, or with tags, fused parts or gaps): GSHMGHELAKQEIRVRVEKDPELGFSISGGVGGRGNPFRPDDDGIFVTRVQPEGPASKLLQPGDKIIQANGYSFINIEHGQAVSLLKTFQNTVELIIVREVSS

DLG1_2, Q12959 = biological target: DLG1_2, Q12959
Chain of DLG1_2, Q12959 (Q12959 314-412): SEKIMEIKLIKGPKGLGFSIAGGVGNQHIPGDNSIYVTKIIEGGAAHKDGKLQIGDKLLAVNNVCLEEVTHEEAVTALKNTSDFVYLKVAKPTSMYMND

PARD3_3, Q8TEW0 = biological target: PARD3_3, Q8TEW0
Chain of PARD3_3, Q8TEW0 (Q8TEW0 582-685): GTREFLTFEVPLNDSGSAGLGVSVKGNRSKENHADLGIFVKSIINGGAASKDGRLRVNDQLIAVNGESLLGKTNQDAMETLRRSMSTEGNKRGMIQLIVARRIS

NHERF3_1, Q5T2W1 = biological target: T4, NHERF3_1, Q5T2W1
FRMPD4, Q14CM0 = biological target: FRMPD4, Q14CM0
Chain of FRMPD4, Q14CM0 (Q14CM0 67-160): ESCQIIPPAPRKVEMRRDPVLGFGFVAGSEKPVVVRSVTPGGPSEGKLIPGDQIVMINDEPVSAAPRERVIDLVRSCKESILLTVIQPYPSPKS

GRIP1_4, Q9Y3R0 = biological target: T5, GRIP1_4, Q9Y3R0
LNX2_3, Q8N448 = biological target: T6, LNX2_3, Q8N448
RADIL, Q96JH8 = biological target: T7, RADIL, Q96JH8
Inadl_2, Q8NI35 = biological target: Inadl_2, Q8NI35
Chain of Inadl_2, Q8NI35 (Q8NI35 238-335): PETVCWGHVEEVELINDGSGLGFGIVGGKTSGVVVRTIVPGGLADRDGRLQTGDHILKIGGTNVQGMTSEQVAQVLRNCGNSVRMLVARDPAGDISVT

IL16_3, Q14005 = biological target: IL16_3, Q14005
Chain of IL16_3, Q14005 (Q14005 1107-1207): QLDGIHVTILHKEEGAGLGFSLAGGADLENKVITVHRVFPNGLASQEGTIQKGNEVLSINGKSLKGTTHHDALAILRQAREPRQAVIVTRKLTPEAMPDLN

TJP2_1, Q9UDY2 = biological target: TJP2_1, Q9UDY2
Chain of TJP2_1, Q9UDY2 (Q9UDY2 24-128): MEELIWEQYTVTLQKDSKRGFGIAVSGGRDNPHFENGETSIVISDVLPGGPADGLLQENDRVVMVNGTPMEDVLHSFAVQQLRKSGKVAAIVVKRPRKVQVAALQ

LIN7B, Q9HAP6 = biological target: T8, LIN7B, Q9HAP6
IL16_4, Q14005 = biological target: IL16_4, Q14005
Chain of IL16_4, Q14005 (Q14005 1229-1329): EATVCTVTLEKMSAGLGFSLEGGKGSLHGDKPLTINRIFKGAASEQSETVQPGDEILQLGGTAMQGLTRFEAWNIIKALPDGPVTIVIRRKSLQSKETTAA

GRIP1_5, Q9Y3R0 = biological target: T9, GRIP1_5, Q9Y3R0
LNX2_2, Q8N448 = biological target: T10, LNX2_2, Q8N448
DLG3_3, Q92796 = biological target: T11, DLG3_3, Q92796
TIAM2, Q8IVF5 = biological target: T12, TIAM2, Q8IVF5

Row | Binder | pKd (NOS1, P29475) | pKd (DVL3, Q92997) | pKd (SNX27, Q96L92) | pKd (GRIP2_5, Q9C0E4) | pKd (MAGI2_2, Q86UL8) | pKd (MPP2, Q14168) | pKd (ARHGEF11, O15085) | pKd (GIPC2, Q8TF65) | pKd (MAST2, Q6P0Q8) | pKd (LAP2, Q96RT1) | pKd (DLG1_2, Q12959) | pKd (PARD3_3, Q8TEW0) | pKd (NHERF3_1, Q5T2W1) | pKd (FRMPD4, Q14CM0) | pKd (GRIP1_4, Q9Y3R0) | pKd (LNX2_3, Q8N448) | pKd (RADIL, Q96JH8) | pKd (Inadl_2, Q8NI35) | pKd (IL16_3, Q14005) | pKd (TJP2_1, Q9UDY2) | also measured
1 | GDSSRKEYFI [GYPC, P04921] | 3.64 | 4.34 | below the threshold | below the threshold | 3.6 | 4.36 | below the threshold | below the threshold | 3.68 | 3.62 | 3.95 | 4.9 | 3.69 | below the threshold | below the threshold | below the threshold | 4.43 | 4.99 | below the threshold | below the threshold | pKd (LIN7B, Q9HAP6): 3.97; pKd (IL16_4, Q14005): below the threshold; pKd (GRIP1_5, Q9Y3R0): below the threshold; pKd (LNX2_2, Q8N448): below the threshold; pKd (DLG3_3, Q92796): below the threshold; pKd (TIAM2, Q8IVF5): 4.23
2 | PSVYSRSQYV [CLDN8, P56748] | 3.99 | 3.63 | 3.75 | below the threshold | below the threshold | below the threshold | 4.16 | below the threshold | below the threshold | below the threshold | 3.86 | below the threshold | 5.34 | below the threshold | below the threshold | below the threshold | 5.17 | below the threshold | below the threshold | 4.87 | pKd (LIN7B, Q9HAP6): below the threshold; pKd (IL16_4, Q14005): below the threshold; pKd (GRIP1_5, Q9Y3R0): below the threshold; pKd (LNX2_2, Q8N448): 4.66; pKd (DLG3_3, Q92796): below the threshold; pKd (TIAM2, Q8IVF5): 4.1
3 | RGKNRRQSIF [CDK18, Q07002] | 3.75 | below the threshold | below the threshold | below the threshold | below the threshold | 3.54 | below the threshold | below the threshold | 4.34 | 3.74 | below the threshold | below the threshold | 3.85 | 3.65 | below the threshold | below the threshold | below the threshold | below the threshold | below the threshold | 3.47 | pKd (LIN7B, Q9HAP6): 4.03; pKd (IL16_4, Q14005): below the threshold; pKd (GRIP1_5, Q9Y3R0): below the threshold; pKd (LNX2_2, Q8N448): 3.58; pKd (DLG3_3, Q92796): 3.71; pKd (TIAM2, Q8IVF5): below the threshold
4 | QLGSPTADLA [SIPA1, Q96FS4] | below the threshold | below the threshold | below the threshold | below the threshold | below the threshold | below the threshold | below the threshold | below the threshold | below the threshold | below the threshold | below the threshold | below the threshold | below the threshold | below the threshold | below the threshold | below the threshold | below the threshold | below the threshold | below the threshold | below the threshold | pKd (LIN7B, Q9HAP6): 3.9; pKd (IL16_4, Q14005): below the threshold; pKd (GRIP1_5, Q9Y3R0): below the threshold; pKd (LNX2_2, Q8N448): below the threshold; pKd (DLG3_3, Q92796): below the threshold; pKd (TIAM2, Q8IVF5): 4.24
5 | SRPHTNETSL [MCC, P23508] | below the threshold | below the threshold | 5.72 | below the threshold | 3.64 | below the threshold | 4.3 | 4.08 | 5.66 | below the threshold | 4.19 | below the threshold | 5.29 | 4.49 | below the threshold | below the threshold | below the threshold | below the threshold | below the threshold | below the threshold | pKd (LIN7B, Q9HAP6): 3.64; pKd (IL16_4, Q14005): below the threshold; pKd (GRIP1_5, Q9Y3R0): below the threshold; pKd (LNX2_2, Q8N448): below the threshold; pKd (DLG3_3, Q92796): 3.95; pKd (TIAM2, Q8IVF5): below the threshold
6 | NKSEPFLTWL [WWTR1, Q9GZV5] | 4.05 | 4.54 | 5.02 | below the threshold | 3.57 | 3.62 | 5.33 | below the threshold | 5.65 | 4.6 | 3.59 | 4.78 | 5.05 | 5.15 | below the threshold | below the threshold | 5.57 | 3.92 | below the threshold | 5.59 | pKd (LIN7B, Q9HAP6): below the threshold; pKd (IL16_4, Q14005): below the threshold; pKd (GRIP1_5, Q9Y3R0): below the threshold; pKd (LNX2_2, Q8N448): 4.44; pKd (DLG3_3, Q92796): below the threshold; pKd (TIAM2, Q8IVF5): 3.65

Source: article PMC9482650, “Quantitative fragmentomics allow affinity mapping of interactomes” (Nature Communications, 2022)
